Assay results reported in patent publication US20150274820A1 (ESBATECH AN ALCON BIOMEDICAL RESEARCH UNIT, published 2015).

Tests used:
[1] = biological target: T1, recombinant human VEGF165 (human, UniProt P15692 27-191); assay: Biacore SPR, VEGF immobilized, pH 5
T1 construct: mature; Isoform VEGF165 of the entry; also called hVEGF165; hVEGF
Experimental: (§1) In this example, the Biacore-binding ability of scFvs was tested and the binding affinity was measured using the exemplary surface plasmon resonance method with BIAcore™-T100. The VEGF proteins, tested for binding by these scFv candidates, in this example and later examples include purified Escherichia coli-expressed recombinant human VEGF₁₆₅ (PeproTech EC Ltd.), recombinant human VEGF₁₂₁ (PeproTech EC Ltd.), recombinant human VEGF₁₁₀ (ESBATech AG), recombinant murine VEGF₁₆₄ (PeproTech EC Ltd.), recombinant rat VEGF₁₆₄ (Biovision), recombinant rabbit VEGF₁₁₀ (ESBATech AG), and recombinant human PLGF (PeproTech EC Ltd.). For the surface plasmon resonance experiment, carboxymethylated dextran biosensor chips (CM4, GE Healthcare) were activated with N-ethyl-N′-(3-dimethylaminopropyl) carbodiimide hydrochloride and N-hydroxysuccinimide according to the supplier's instructions. Each of the 6 different VEGF forms, as exemplified above, was coupled to 1 of the 4 different flow cells on a CM4 sensor chip using a standard amine-coupling procedure. […] The 4th flow cell of each chip was treated similarly except no proteins were immobilized prior to blocking, and the flow cell was used as in-line reference. […] Dissociation of the anti-VEGF scFv from the VEGF on the CM4 chip was allowed to proceed for 10 min at 25° C. Sensorgrams were generated for each anti-VEGF scFv sample after in-line reference cell correction followed by buffer sample subtraction. The apparent dissociation rate constant (kd), the apparent association rate constant (kₐ) and the apparent dissociation equilibrium constant (KD) were calculated using one-to-one Langmuir binding model with BIAcore T100 evaluation Software version 1.1.

[2] = biological target: T1, recombinant human VEGF165; assay: Biacore SPR, VEGF immobilized, pH 5; remark: listed apart in the source
Experimental: as §1, with “1.1. […]” for “1.1.”

[3] = biological target: T1, recombinant human VEGF165; assay: Biacore SPR, VEGF immobilized, pH 7.4
Experimental: as §1

T1 sequence (P15692 other isoform, or with tags, fused parts or gaps): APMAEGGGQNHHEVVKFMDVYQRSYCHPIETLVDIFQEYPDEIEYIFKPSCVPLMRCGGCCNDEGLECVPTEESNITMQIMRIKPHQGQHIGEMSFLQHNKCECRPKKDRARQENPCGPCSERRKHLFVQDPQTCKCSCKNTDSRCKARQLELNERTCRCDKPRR

Row | Binder | koff [1] [s⁻¹] | kon [1] [M⁻¹ s⁻¹] | Kd [2] [nM] | koff [2] [s⁻¹] | kon [2] [M⁻¹ s⁻¹] | kon [3] [M⁻¹ s⁻¹] | koff [3] [s⁻¹]
1 | 534-min C-His (scFv, VL and VH tied by name; His tag only named (C-His); also called Protein Nr; 807; not shown: C-terminal His tag) scFv: EIVMTQSPSTLSASVGDRVIITCQASQSINIWLSWYQQKPGKAPKLLIYKESTLASGVPSRFSGSGSGAEFTLTISSLQPDDFATYYCQNNYDSGNNGFPFGQGTKLTVLGGGGGSGGGGSGGGGSGGGGSEVQLVESGGGLVQPGGSLRLSCAASGFSLSYYYMSWVRQAPGKGLEWVSIIGPGDYTDYASWAKGRFTISRDNSKNTLYLQMNSLRAEDTAVYYCAKGDDNSGWGEDIWGQGTLVTVSS | 0.00921 | 271000 |  |  |  |  | 
2 | 578min_max T84N_V89A (scFv, the VH entry already carries the changes; tied by name; also called Protein Nr; 1009) scFv: EIVMTQSPSTLSASVGDRVIITCQASEIIHSWLAWYQQKPGKAPKLLIYLASTLASGVPSRFSGSGSGAEFTLTISSLQPDDFATYYCQNVYLASTNGANFGQGTKLTVLGGGGGSGGGGSGGGGSGGGGSEVQLVESGGGLVQPGGSLRLSCTASGFSLTDYYYMTWVRQAPGKGLEWVGFIDPDDDPYYATWAKGRFTISRDNSKNTAYLQMNSLRAEDTAVYYCAGGDHNSGWGLDIWGQGTLVTVSS |  |  | 0.615 | 0.000493 | 801000 |  | 
3 | 578min_max V89L (scFv, the VH entry already carries V89L; tied by name; also called Protein Nr; 980) scFv: EIVMTQSPSTLSASVGDRVIITCQASEIIHSWLAWYQQKPGKAPKLLIYLASTLASGVPSRFSGSGSGAEFTLTISSLQPDDFATYYCQNVYLASTNGANFGQGTKLTVLGGGGGSGGGGSGGGGSGGGGSEVQLVESGGGLVQPGGSLRLSCTASGFSLTDYYYMTWVRQAPGKGLEWVGFIDPDDDPYYATWAKGRFTISRDTSKNTLYLQMNSLRAEDTAVYYCAGGDHNSGWGLDIWGQGTLVTVSS |  |  | 2.13 | 0.00187 | 875000 |  | 
4 | 610-min (scFv, VL and VH tied by name; also called Protein Nr) scFv: EIVMTQSPSTLSASVGDRVIITCQASQSISSWLSWYQQKPGKAPKLLIYQASTLASGVPSRFSGSGSGAEFTLTISSLQPDDFATYYCQNNYGFRSYGGAFGQGTKLTVLGGGGGSGGGGSGGGGSGGGGSEVQLVESGGGLVQPGGSLRLSCAASGIDFSGAYYMGWVRQAPGKGLEWVSYIDYDGDRYYASWAKGRFTISRDNSKNTLYLQMNSLRAEDTAVYYCAKSDYSSGWGTDIWGQGTLVTVSS | 0.00265 | 251000 |  |  |  |  | 
5 | 610-max (scFv, VL and VH tied by name; also called Protein Nr) scFv: EIVMTQSPSTLSASVGDRVIITCQASQSISSWLSWYQQKPGKAPKLLIYQASTLASGVPSRFSGSGSGTEFTLTISSLQPDDFATYYCQNNYGFRSYGGAFGQGTKLTVLGGGGGSGGGGSGGGGSGGGGSEVQLVESGGGLVQPGGSLRLSCTASGIDFSGAYYMGWVRQAPGKGLEWVGYIDYDGDRYYASWAKGRFTISKDTSKNTVYLQMNSLRAEDTAVYYCARSDYSSGWGTDIWGQGTLVTVSS | 0.000601 | 509000 |  |  |  | > 1e+08 | 
6 | 375-min (scFv, VL and VH tied by name; also called Protein Nr; 857) scFv: EIVMTQSPSTLSASVGDRVIITCQASENINIWLSWYQQKPGKAPKLLIYQASKLASGVPSRFSGSGSGAEFTLTISSLQPDDFATYYCQNNYSYNRYGAPFGQGTKLTVLGGGGGSGGGGSGGGGSGGGGSEVQLVESGGGLVQPGGSLRLSCAASGFSFTTTDYMCWVRQAPGKGLEWVSCILAGDGSTYYANWAKGRFTISRDNSKNTLYLQMNSLRAEDTAVYYCAKSDPASSWSFALWGQGTLVTVSS | 0.00501 | 927000 |  |  |  | > 1e+08 | 
7 | 375-max (scFv, VL and VH tied by name; also called Protein Nr; 873) scFv: EIVMTQSPSTLSASVGDRVIITCQASENINIWLSWYQQKPGKAPKLLIYQASKLASGVPSRFSGSGSGTQFTLTISSLQPDDFATYYCQNNYSYNRYGAPFGQGTKLTVLGGGGGSGGGGSGGGGSGGGGSEVQLVESGGGLVQPGGSLRLSCKASGFSFTTTDYMCWVRQAPGKGLEWVGCILAGDGSTYYANWAKGRFTGSKDTSKNTVYLQMNSLRAEDTAVYYCARSDPASSWSFALWGQGTLVTVSS | 0.00655 | 2.44e+06 |  |  |  | 5.09e+07 | 0.242
8 | 511max_min (scFv, also called Protein Nr; 905) scFv: EIVMTQSPSTLSASVGDRVIITCQASQSINIWLSWYQQKPGKAPKLLIYRASTLASGVPSRFSGSGSGTEFTLTISSLQPDDFATYYCQANYAYSAGYGAAFGQGTKLTVLGGGGGSGGGGSGGGGSGGGGSEVQLVESGGGLVQPGGSLRLSCAASGFSLNTYYMNWVRQAPGKGLEWVSIIAPDDTTYYASWAKSRFTISRDNSKNTLYLQMNSLRAEDTAVYYCAKSGDTTAWGADIWGQGTLVTVSS |  |  | 1.48 | 0.000754 | 511000 |  | 

The next lines start with the values.

Row | koff [1] [s⁻¹] | kon [1] [M⁻¹ s⁻¹] | Kd [2] [nM] | koff [2] [s⁻¹] | kon [2] [M⁻¹ s⁻¹] | kon [3] [M⁻¹ s⁻¹] | koff [3] [s⁻¹] | Binder
9 |  |  | 0.266 | 0.000248 | 930000 |  |  | 578-max FW1.4_DHP (scFv, Tied by name only; also called Protein Nr; 960) scFv: EIVMTQSPSTLSASVGDRVIITCQASEIIHSWLAWYQQKPGKAPKLLIYLASTLASGVPSRFSGSGSGTQFTLTISSLQPDDFATYYCQNVYLASTNGANFGQGTKLTVLGGGGGSGGGGSGGGGSGGGGSEVQLVESGGGSVQPGGSLRLSCTASGFSLTDYYYMTWVRQAPGKGLEWVGFIDPDDDPYYATWAKGRFTISRDTSKNTVYLQMNSLRAEDTATYYCAGGDHNSGWGLDIWGQGTTVTVSS
10 |  |  | 0.971 | 0.0007 | 721000 |  |  | 578min_max T84N (scFv, the VH entry already carries T84N; tied by name; also called Protein Nr) scFv: EIVMTQSPSTLSASVGDRVIITCQASEIIHSWLAWYQQKPGKAPKLLIYLASTLASGVPSRFSGSGSGAEFTLTISSLQPDDFATYYCQNVYLASTNGANFGQGTKLTVLGGGGGSGGGGSGGGGSGGGGSEVQLVESGGGLVQPGGSLRLSCTASGFSLTDYYYMTWVRQAPGKGLEWVGFIDPDDDPYYATWAKGRFTISRDNSKNTVYLQMNSLRAEDTAVYYCAGGDHNSGWGLDIWGQGTLVTVSS
11 |  |  | 6.55 | 0.00883 | 1.35e+06 |  |  | 578-max-min (scFv, also called Protein Nr; 902) scFv: EIVMTQSPSTLSASVGDRVIITCQASEIIHSWLAWYQQKPGKAPKLLIYLASTLASGVPSRFSGSGSGTQFTLTISSLQPDDFATYYCQNVYLASTNGANFGQGTKLTVLGGGGGSGGGGSGGGGSGGGGSEVQLVESGGGLVQPGGSLRLSCAASGFSLTDYYYMTWVRQAPGKGLEWVSFIDPDDDPYYATWAKGRFTISRDNSKNTLYLQMNSLRAEDTAVYYCAKGDHNSGWGLDIWGQGTLVTVSS
12 |  |  | 1.2 | 0.000612 | 509000 |  |  | 578min_max V89A (scFv, the VH entry already carries V89A; tied by name; also called Protein Nr; 978) scFv: EIVMTQSPSTLSASVGDRVIITCQASEIIHSWLAWYQQKPGKAPKLLIYLASTLASGVPSRFSGSGSGAEFTLTISSLQPDDFATYYCQNVYLASTNGANFGQGTKLTVLGGGGGSGGGGSGGGGSGGGGSEVQLVESGGGLVQPGGSLRLSCTASGFSLTDYYYMTWVRQAPGKGLEWVGFIDPDDDPYYATWAKGRFTISRDTSKNTAYLQMNSLRAEDTAVYYCAGGDHNSGWGLDIWGQGTLVTVSS
13 |  |  |  |  |  | 495000 | 0.0143 | 435-min (scFv, VL and VH tied by name; also called Protein Nr; 944) scFv: EIVMTQSPSTLSASVGDRVIITCQASQSIGSSLAWYQQKPGKAPKLLIYTAANLASGVPSRFSGSGSGAEFTLTISSLQPDDFATYYCQNFATSDTVTFGQGTKLTVLGGGGGSGGGGSGGGGSGGGGSEVQLVESGGGLVQPGGSLRLSCAASGFSLNTNYWMCWVRQAPGKGLEWVSCMYTGSYNRAYYASWAKGRFTISRDNSKNTLYLQMNSLRAEDTAVYYCAKGSNWYSDLWGQGTLVTVSS
14 |  |  | 0.278 | 0.000102 | 366000 |  |  | 511min_max (scFv, also called Protein Nr; 904) scFv: EIVMTQSPSTLSASVGDRVIITCQASQSINIWCSWYQQKPGKAPKLLIYRASTLASGVPSRFSGSGSGAEFTLTISSLQPDDFATYYCQANYAYSAGYGAAFGQGTKLTVLGGGGGSGGGGSGGGGSGGGGSEVQLVESGGGLVQPGGSLRLSCTVSGFSLNTYYMNWVRQAPGKGLEWVGIIAPDDTTYYASWAKSRSTISRDTSKNTVYLQMNSLRAEDTAVYYCARSGDTTAWGADIWGQGTLVTVSS
